Here are results for 25 molecules from patent publication US20250057951A1, “DISCERNIBLE CELL SURFACE PROTEIN VARIANTS OF CD117 FOR USE IN CELL THERAPY” (UNIVERSITÄT BASEL, priority 2021, published 2025).

Where a chain is given by its changes, count along the chain named. In names and notes the source's numbering stands.

For one data set, the system named is CD117. The experiment in a line: Gene editing of CD117 in TF-1 cells, loss of SR-1 binding by FACS. The data set is classed as cell-based, human. The following applies: FACS 7 days after electroporation with Cas9, crRNA/tracrRNA or sgRNA and HDR template. On the procedure:
Gene editing of CD117 was performed in TF-1 cells using HDR. 12 different crRNAs were tested, six of them targeting amino acid residue E73 (Table 3), and six of them targeting amino acid residues 120-123 (Table 3).
Binding of antibody SR-1 to TF-1 cells was measured by FACS 7 days after electroporation with Cas9 protein, crRNA/tracrRNA or sgRNA and HDR template (Table 4).
(In general: Flow cytometry measures light scatter and fluorescence of single cells or particles in a stream.)

Data set [1] concerns antibody Refmab #1. The experiment in a line: Octet screen: binding of CD117 D1-2-3 variants to captured Refmab #1. The note with it: nm shift at end of association, top analyte concentration (500 nM). On the procedure: A more sophisticated analysis of binding to the elected variants was performed with antibody Refmab #1. Binding of Refmab #1 to wt and variants (analyte) was measured in an Octet system RED96e or R8 at 25° C. with shaking at 1,000 rpm using 1× kinetic buffer (Sartorius, PN: 18-1105). First, the elected variants were screened for their ability to bind Refmab #1 using three different concentrations of analytes. Antibody Refmab #1 was captured by Anti-Human Fc capture biosensor (AHC) (Sartorius, PN: 18-5060) for 300 s at 0.5 to 1 μg/mL. As an analyte, human CD117 wt and variants, containing only domains 1, 2 and 3 (CD117 D1-2-3), was titrated at 500 nM, 50 nM and 5 nM. Association and dissociation of the analyte to Refmab #1 was monitored for 300 s and 900 s, respectively. Reference subtraction was performed against buffer only wells. AHC tips were regenerated using 10 mM Gly-HCl pH 1.7. Data were analyzed using the Octet Data Analysis software HT 12.0. Data were fitted (when possible) to a 1:1 binding model. Kinetic rates ka and […] globally fitted. Binding level of the elected variants were compared to wild type and are shown as percent in FIG. 7. For this qualitative analysis, the binding level of the top analyte concentration at end of the association step was used.
For orientation: Biolayer interferometry detects binding as a change in optical thickness at a sensor tip.

Data set [2] has as its target antibody Refmab #1. The experiment in a line: Octet titration, steady state KD of CD117 D1-2-3 variants to Refmab #1. The data set is classed as binding. The following applies: for Kd: 7 concentrations 2000-5 nM, steady state, two individual experiments; for change of KD compared to wild type CD117: KD variant vs wild type; for binding of Refmab #1 at 2000 nM variant: nm shift higher than 0.1 nm counts as binding. Here is the method:
To further characterize binding of Refmab #1 to CD117 D1-2-3 variants E73K, E73L, E73R, E73Y, D121H, D121K, S123K and S123F, the analytes were titrated at 7 different concentrations (from 2000 nM to 5 nM). Antibody Refmab #1 was captured by AHC biosensors for 300 s at 0.5 to 1 μg/mL. Association and dissociation to Refmab #1 was extended to 600 s and 1000 s, respectively. Steady state analysis was performed.

For a further data set, the system named is TF-1 cells. The experiment in a line: SCF-dependent proliferation, SCF titration on TF-1 cells with CD117 variants (CellTiter-Glo). The class given is cell-based, human. Here is the method:
In another experiment, SCF-dependent proliferation of variants E73K, E73Y, D121K, S123F and S123K was compared against wildtype CD117. TF-1 cells were seeded at a cell concentration of 150 000 cells/ml in sterile, white cell culture treated plates with transparent bottom in RPMI+GlutaMax+10% FCS. Cells were treated with a titration of SCF. After 3 days of incubation a CellTiter-Glo 2.0 assay (Promega) was performed, luminescence was read in a luminometer (Envision plate reader) and EC50's was determined. Two different experiments with triplicates in each experiment were performed.
In general terms: ATP-based viability assays read luminescence as a measure of living cells.

For another data set, the target named is T1, Biotinylated Avitag-hSCF (human, UniProt P21583 26-190, limits assumed, biotinylated Avitag).
T1 construct: Bought reagent; also called hSCF (Acros Biosystems SCF-H82E1)
Kind of data set: BLI (Octet), steady state: biotinylated SCF on streptavidin biosensor, CD117 D1-2-3 variant as analyte; KD relative to WT.

Setting [3] is: titration of SCF, 3 days, TF-1 cells with the CD117 variant.

T1 sequence (P21583 26-190 limits assumed): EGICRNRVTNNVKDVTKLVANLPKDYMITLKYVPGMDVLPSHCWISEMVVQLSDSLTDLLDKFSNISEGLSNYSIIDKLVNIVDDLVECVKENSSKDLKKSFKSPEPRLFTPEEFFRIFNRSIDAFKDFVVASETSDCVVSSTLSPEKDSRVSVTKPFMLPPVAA
Chain of antibody Refmab #1 (as listed by the source): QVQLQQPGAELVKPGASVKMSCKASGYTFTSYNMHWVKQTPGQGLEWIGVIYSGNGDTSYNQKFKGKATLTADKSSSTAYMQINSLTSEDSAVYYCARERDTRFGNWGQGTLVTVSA
Chain of antibody Refmab #1 (as listed by the source): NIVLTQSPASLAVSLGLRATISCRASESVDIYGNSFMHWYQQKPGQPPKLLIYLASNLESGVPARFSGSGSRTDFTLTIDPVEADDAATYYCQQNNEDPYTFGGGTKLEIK

In the case of “KIT_120_123_1: crRNA GTTGTCTTCTTTCCCATACA, SEQ ID NO: 9, targets residues 120-123 of CD117 (chemistry not given here)”, in the data set on CD117, the “KnockOut Efficiency (loss of binding of SR-1 compared to wild type cells)” value was 64.1%.

For orientation: Kd means the equilibrium constant for the complex coming apart. For the molecule “S123F: variant of human CD117 with substitution S123F”, in the data set on antibody Refmab #1 [1], the “binding to Refmab #1 compared to wild type” value is recorded as “particular strong decrease in binding”. Besides, at antibody Refmab #1 [2], the Kd is 1500 nM and the “change of KD compared to wild type CD117” value is “around 1,500 fold”. In addition, the “EC50 Average” value in the data set with TF-1 cells (average of two experiments) was 3.82 ± 0.19 ng/mL. In the data set with TF-1 cells (setting [3]), the “EC50 Experiment #1” value was determined as 4.01 ng/mL and the “EC50 Experiment #2” value worked out at 3.63 ng/mL.

For “S1231: variant of human CD117, printed S1231, probably substitution S123I”, in the data set on antibody Refmab #1 [1], the “binding to Refmab #1 compared to wild type” value is listed as “strong decrease in binding”.

B1: K193G (receptor)
extracellular domains 1, 2 and 3: QPSVSPGEPSPPSIHPGKSDLIVRVGDEIRLLCTDPGFVKWTFEILDETNENKQNEWITEKAEATNTGKYTCTNKHGLSNSIYVFVRDPAKLFLVDRSLYGKEDNDTLVRCPLTDPEVTNYSLKGCQGKPLPKDLRFIPDPKAGIMIKSVKRAYHRLCLHCSVDQEGGSVLSEKFILKVRPAFKAVPVVSVSKASYLLREGEEFTVTCTIKDVSSSVYSTWKRENSQTKLQEKYNSWHHGDFNYERQATLTISSARVNDSGVFMCYANNTFGSANVTTTLEVVD
notes: not in the list MOLECULES; also called human CD117 D1-2-3 variant K193G
On to B1, for which the binding result with Biotinylated Avitag-hSCF is on record as “binds”.

B2: D121S (receptor)
extracellular domains 1, 2 and 3: B1 extracellular domains 1, 2 and 3 with D96S, G168K
notes: not in the list MOLECULES; also called human CD117 D1-2-3 variant D121S
Turning to B2, the binding result in the data set with Biotinylated Avitag-hSCF is “binds”.

B3: E73G (receptor)
extracellular domains 1, 2 and 3: B1 extracellular domains 1, 2 and 3 with E48G, G168K
notes: not in the list MOLECULES; also called human CD117 D1-2-3 variant E73G
In the case of B3, in the data set with Biotinylated Avitag-hSCF, the binding result is “binds”.

B4: D121V (receptor)
extracellular domains 1, 2 and 3: B1 extracellular domains 1, 2 and 3 with D96V, G168K
notes: not in the list MOLECULES; also called human CD117 D1-2-3 variant D121V
Turning to B4, the binding result with Biotinylated Avitag-hSCF is given as “binds”.

B5: K193E (receptor)
extracellular domains 1, 2 and 3: B1 extracellular domains 1, 2 and 3 with G168E
notes: not in the list MOLECULES; also called human CD117 D1-2-3 variant K193E
Turning to B5, the binding result in the data set with Biotinylated Avitag-hSCF is “binds”.

B6: R122L (receptor)
extracellular domains 1, 2 and 3: B1 extracellular domains 1, 2 and 3 with R97L, G168K
notes: not in the list MOLECULES; also called human CD117 D1-2-3 variant R122L
With B6, in the data set with Biotinylated Avitag-hSCF, the binding result is “binds”.

B7: R122S (receptor)
extracellular domains 1, 2 and 3: B1 extracellular domains 1, 2 and 3 with R97S, G168K
notes: not in the list MOLECULES; also called human CD117 D1-2-3 variant R122S
As for B7, in the data set on antibody Refmab #1 [1], the “binding to Refmab #1 compared to wild type” value is “particular strong decrease in binding”. Besides, the binding result in the data set with Biotinylated Avitag-hSCF was “binds”.

B8: R122E (receptor)
extracellular domains 1, 2 and 3: B1 extracellular domains 1, 2 and 3 with R97E, G168K
notes: not in the list MOLECULES; also called human CD117 D1-2-3 variant R122E
Take B8: the “binding to Refmab #1 compared to wild type” value with antibody Refmab #1 [1] is on record as “particular strong decrease in binding”. Besides, in the data set with Biotinylated Avitag-hSCF, the binding result is listed as “binds”.

B9: K193D (receptor)
extracellular domains 1, 2 and 3: B1 extracellular domains 1, 2 and 3 with G168D
notes: not in the list MOLECULES; also called human CD117 D1-2-3 variant K193D
Consider B9, for which the binding result with Biotinylated Avitag-hSCF is “binds”.

B10: V120I (receptor)
extracellular domains 1, 2 and 3: B1 extracellular domains 1, 2 and 3 with V95I, G168K
notes: not in the list MOLECULES; also called human CD117 D1-2-3 variant V120I
Regarding B10, in the data set with Biotinylated Avitag-hSCF, the binding result is reported as “binds”.

B11: K193M (receptor)
extracellular domains 1, 2 and 3: B1 extracellular domains 1, 2 and 3 with G168M
notes: not in the list MOLECULES; also called human CD117 D1-2-3 variant K193M
In the case of B11, the binding result with Biotinylated Avitag-hSCF is recorded as “binds”.

B12: K193T (receptor)
extracellular domains 1, 2 and 3: B1 extracellular domains 1, 2 and 3 with G168T
notes: not in the list MOLECULES; also called human CD117 D1-2-3 variant K193T
Regarding B12, the binding result with Biotinylated Avitag-hSCF is “binds”.

B13: S123P: variant of human CD117 with substitution S123P (protein)
chain: QPSVSPGEPSPPSIHPGKSDLIVRVGDEIRLLCTDPGFVKWTFEILDETNENKQNEWITEKAEATNTGKYTCTNKHGLSNSIYVFVRDPAKLFLVDRPLYGKEDNDTLVRCPLTDPEVTNYSLKGCQGKPLPKDLRFIPDPKAGIMIKSVKRAYHRLCLHCSVDQEGKSVLSEKFILKVRPAFKAVPVVSVSKASYLLREGEEFTVTCTIKDVSSSVYSTWKRENSQTKLQEKYNSWHHGDFNYERQATLTISSARVNDSGVFMCYANNTFGSANVTTTLEVVDKG
As for B13, in the data set on antibody Refmab #1 [1], the “binding to Refmab #1 compared to wild type” value is given as “particular strong decrease in binding”.

B14: D121Y: variant of human CD117 with substitution D121Y (protein)
chain: B13 chain with D96Y, P98S
Regarding B14, the “binding to Refmab #1 compared to wild type” value with antibody Refmab #1 [1] was “particular strong decrease in binding”.

B15: S123M: variant of human CD117 with substitution S123M (protein)
chain: B13 chain with P98M
Take B15: the “binding to Refmab #1 compared to wild type” value in the data set with antibody Refmab #1 [1] is recorded as “strong decrease in binding”.

B16: S123Q: variant of human CD117 with substitution S123Q (protein)
chain: B13 chain with P98Q
As to B16, the “binding to Refmab #1 compared to wild type” value in the data set on antibody Refmab #1 [1] was “strong decrease in binding”.

B17: D121H: variant of human CD117 with substitution D121H (protein)
chain: B13 chain with D96H, P98S
Regarding B17, in the data set with antibody Refmab #1 [1], the “binding to Refmab #1 compared to wild type” value is “particular strong decrease in binding”. Besides, the “binding of Refmab #1 at 2000 nM variant” value in the data set on antibody Refmab #1 [2] is given as “No binding”.

B18: D121R: variant of human CD117 with substitution D121R (protein)
chain: B13 chain with D96R, P98S
In the case of B18, the “binding to Refmab #1 compared to wild type” value with antibody Refmab #1 [1] is reported as “strong decrease in binding”.

B19: S123E: variant of human CD117 with substitution S123E (protein)
chain: B13 chain with P98E
Regarding B19, the “binding to Refmab #1 compared to wild type” value in the data set on antibody Refmab #1 [1] is given as “particular strong decrease in binding”. For the same molecule, in the data set on antibody Refmab #1 [2], the “binding of Refmab #1 at 2000 nM variant” value is “do not show any binding”.

B20: E73R: variant of human CD117 with substitution E73R (protein)
chain: B13 chain with E48R, P98S
Take B20: in the data set on antibody Refmab #1 [1], the “binding to Refmab #1 compared to wild type” value is recorded as “particular strong decrease in binding”. Further, on antibody Refmab #1 [2], binding was characterised by a dissociation constant (Kd) of 958 nM and the “change of KD compared to wild type CD117” value is recorded as “around 1000 fold”.

B21: D121T: variant of human CD117 with substitution D121T (protein)
chain: B13 chain with D96T, P98S
For the molecule B21, in the data set with antibody Refmab #1 [1], the “binding to Refmab #1 compared to wild type” value is “particular strong decrease in binding”.

B22: E73L: variant of human CD117 with substitution E73L (protein)
chain: B13 chain with E48L, P98S
For the molecule B22, at antibody Refmab #1 [2], the Kd came to 485 nM and the “change of KD compared to wild type CD117” value is “around 500 fold”.
